Patent US10350158B2, “2′ fluoro-modified RNAs as immunostimulators” (DUKE UNIVERSITY, priority 2013, dated 2019)
Strand notation (5' to 3'): a small letter for the sugar, then the base; units joined by * are phosphorothioate-linked, units joined directly phosphodiester-linked; [ ] holds rarer units or linkages, { } end groups; capitals alone tell only the bases. {ppp} = triphosphate; r = 2'-OH (RNA); f = 2'-fluoro

Columns and labels:
IFNβ = IFNβ ELISA of transfected melanoma cell supernatants; format: cell-based, human
Description: For the intracellular delivery of immune stimulatory RNAs, RNAs were transfected with the DharmaFECT® Duo liposomal transfection reagent (Thermo Scientific, Waltham, Mass.) at a transfection reagent (μl):RNA (μg) ratio of 3.75:1, according to the manufacturer's instructions. Unless otherwise stated, for the induction of innate immune responses and apoptosis, immune stimulatory RNAs (500 ng/ml) were transfected into 50 to 70% confluent cells. Cells were incubated with an RNA-transfection agent complex for 5 h, followed by replenishment with fresh culture medium. To electroporate cells, 1×10^5 cells suspended in 200 μl Opti-MEM I (Invitrogen) were mixed with 1 μg of immune stimulatory RNAs or 5 μg of 2'Fluoro pyrimidine ribonucleoside triphosphate in 2-mm cuvettes and were electroporated at 300 V for 500 μs using an Electro Square Porator ECM 830 (BTX, San Diego, Calif.). For the knockdown of RNA-sensing PRRs, cells were transfected with PRR-specific siRNAs (25 nM) twice at 2-day intervals using DharmaFECT®-1 (Thermo Scientific). At 5 h after the second siRNA transfection, cells were harvested, replated into a 96-well plate and incubated overnight. Cells were then treated with immune stimulatory RNA transfections. Staurosporine (2 μM) (Sigma, St Louis, Mo.) and recombinant human IFNβ (20 ng/ml) (PeproTech, Rocky Hill, N.J.) were used as positive controls of anti-melanoma cytotoxicity. […] (100 ng/ml) (eBioscience, San Diego, Calif.) was added directly to the growth media of cells to neutralize IFNβ. Cells were transfected with RNAs as described above. At 24 hours after RNA transfection, culture supernatants were collected and stored at -80° C. for later analyses. The production of human IL-8 was analyzed with a human IL-8 ELISA kit (eBioscience). IFN-β production was determined with a human IFN-β ELISA kit (PBL Biomedical Laboratories, Piscataway, N.J.) by following the manufacturer's instructions.

human TLR3 = target: T1, human TLR3 (Homo sapiens, UniProt O15455); assay: HEK-hTLR3-NFκB/SEAP reporter assay; format: cell-based; conditions: QUANTI-BLUE
T1 construct: host or cells: HEK293 (HEK-hTLR3-NFκB/SEAP)
Description: The human TLR3 reporter cell, HEK-hTLR3-NFκB/SEAP was purchased from Invivogen. These cells were stably co-transfected with the human TLR3 gene and an inducible SEAP (secreted embryonic alkaline phosphatase) reporter gene into HEK293 cells. The SEAP gene is placed under the control of NF-κB and AP-1. […] SEAP gene expression was measured using the SEAP detection media QUANTI-BLUE (Invivogen), according to the manufacturer's instructions. FIG. 3B is a graph showing that TLR7 is not stimulated by the ssRNAs. Human TLR7-expressing HEK293 cells were kindly provided by Dr. Todd Brennan (Duke University, Durham, N.C.). Treatment with R848 but not with polyI:C, polyI:C-DF and 5′ppp 2′F 10F-DF complexes stimulated HEK-TLR7 cells to produce the inflammatory cytokine IL-8. The data represent the mean of two experiments. Error bars represent the S.D.

WM266.4 cells = assay: Cellular stability of transfected RNA by RT-PCR; format: in vitro ADME, human; conditions: 4, 8, 12 and 24 h after transfection
Description: FIG. 6A-FIG. 6D are a set of graphs showing that 2′F modification increases nuclease resistance, cytotoxicity and inflammatory cytokine induction of immunostimulatory 5′ppp ssRNAs. FIG. 6A is a graph showing ability of various modified ssRNAs to inhibit the growth of cells over concentration ranges. WM266-4 cells were treated with transfection reagent alone (mock) or the complex of transfection reagent and 5′ppp 10F containing 2′F pyrimidine, 2′OMe pyrimidine or unmodified pyrimidine (2′OH) at various concentrations. The viral dsRNA analog PolyI:C was used as an experimental control. Growth inhibition was assessed at 72 h post treatments using the MTT assay. FIG. 6B is a set of graphs showing cytokine induction after treatment with the indicated ssRNAs. WM266-4 cells were either treated with transfection reagent alone (mock) or the complex of transfection reagent and 5′ppp 2′OH 10F, 5′ppp 2′F 10F, 5′ppp 2′OMe 10F or poly I:C (0.5 μg/ml each). The secretion of IFNβ and IL-8 by the melanoma cells was analyzed at 24 h after treatment by ELISA. The data represent the mean of three experiments. Error bars represent the S.D.; *P<0.05 (5′ppp 2′F 10F vs 5′ppp 2′OH 10F); P<0.001 (5′ppp 2′OMe 10F vs 5′ppp 2′OH 10F). […] RNAs were analyzed on 12% polyacrylamide gels. […] At 4 h, 8, 12 and 24 h after transfection, total RNAs were isolated and cellular 10F RNA levels were analyzed by RT-PCR. […]

IL-8 = IL-8 ELISA of transfected melanoma cell supernatants; format: cell-based, human; conditions: 0.5 μg/ml, 24 h
Description: For the intracellular delivery of immune stimulatory RNAs, RNAs were transfected with the DharmaFECT® Duo liposomal transfection reagent (Thermo Scientific, Waltham, Mass.) at a transfection reagent (μl):RNA (μg) ratio of 3.75:1, according to the manufacturer's instructions. Unless otherwise stated, for the induction of innate immune responses and apoptosis, immune stimulatory RNAs (500 ng/ml) were transfected into 50 to 70% confluent cells. Cells were incubated with an RNA-transfection agent complex for 5 h, followed by replenishment with fresh culture medium. To electroporate cells, 1×10^5 cells suspended in 200 μl Opti-MEM I (Invitrogen) were mixed with 1 μg of immune stimulatory RNAs or 5 μg of 2'Fluoro pyrimidine ribonucleoside triphosphate in 2-mm cuvettes and were electroporated at 300 V for 500 μs using an Electro Square Porator ECM 830 (BTX, San Diego, Calif.). For the knockdown of RNA-sensing PRRs, cells were transfected with PRR-specific siRNAs (25 nM) twice at 2-day intervals using DharmaFECT®-1 (Thermo Scientific). At 5 h after the second siRNA transfection, cells were harvested, replated into a 96-well plate and incubated overnight. […] The production of human IL-8 was analyzed with a human IL-8 ELISA kit (eBioscience). IFN-β production was determined with a human IFN-β ELISA kit (PBL Biomedical Laboratories, Piscataway, N.J.) by following the manufacturer's instructions.

T1 sequence (O15455 24-904): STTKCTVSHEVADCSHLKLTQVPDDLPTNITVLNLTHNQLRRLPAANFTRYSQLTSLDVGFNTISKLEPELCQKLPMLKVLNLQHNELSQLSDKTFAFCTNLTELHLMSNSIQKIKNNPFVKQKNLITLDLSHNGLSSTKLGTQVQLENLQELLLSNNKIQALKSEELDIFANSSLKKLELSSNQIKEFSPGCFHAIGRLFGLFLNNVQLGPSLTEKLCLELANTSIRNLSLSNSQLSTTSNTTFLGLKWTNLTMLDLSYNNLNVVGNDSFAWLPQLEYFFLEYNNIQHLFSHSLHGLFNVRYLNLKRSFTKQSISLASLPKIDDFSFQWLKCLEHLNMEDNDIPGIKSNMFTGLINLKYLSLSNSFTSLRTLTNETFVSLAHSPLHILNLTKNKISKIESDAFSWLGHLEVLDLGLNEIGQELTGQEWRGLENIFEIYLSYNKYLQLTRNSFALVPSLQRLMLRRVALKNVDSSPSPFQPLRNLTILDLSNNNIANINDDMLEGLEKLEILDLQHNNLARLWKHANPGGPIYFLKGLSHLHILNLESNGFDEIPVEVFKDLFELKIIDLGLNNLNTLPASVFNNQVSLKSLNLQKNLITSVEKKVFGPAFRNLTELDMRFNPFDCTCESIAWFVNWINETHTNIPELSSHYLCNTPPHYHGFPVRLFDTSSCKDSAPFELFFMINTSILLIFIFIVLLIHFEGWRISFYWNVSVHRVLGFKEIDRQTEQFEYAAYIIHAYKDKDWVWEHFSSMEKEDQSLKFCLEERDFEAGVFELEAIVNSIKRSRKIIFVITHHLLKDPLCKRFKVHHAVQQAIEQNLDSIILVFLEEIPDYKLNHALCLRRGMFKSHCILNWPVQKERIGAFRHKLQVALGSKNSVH

B1: 10F: 5′ppp 2′F pyrimidine ssRNA aptamer, 71 nt, human melanocytic cell-targeting, SEQ ID NO: 4 (nucleic acid)
chain: {ppp}-rGrGrGrArGrGrAfCrGrAfUrGfCrGrGfUrAfCfCfUrGrAfCrArGfCrAfUfCfUfUrGrAfUrArAfUrGrGfUfCfCfUrAfCrGrGrArGfCfCrGfUfUfCfCrArGrAfCrGrAfCfUfCrGfCfCfCrGrA
IFNβ production, fold compared to unmodified 5′ppp RNAs (IFNβ; 0.5 μg/ml, 24 h, ELISA): over 2 fold
IFNβ production after dephosphorylation of the aptamer (IFNβ; aptamer treated with bacterial alkaline phosphatase (BAP), 0.125 μg/ml): partially prevented
IFNβ production / induction, in words (IFNβ; liposomal transfection, ELISA): strong induction
stimulation of TLR3 reporter cells (SEAP) (human TLR3): not
cellular stability compared to unmodified RNAs (WM266.4 cells): improve cellular stability
IL-8 production, fold compared to unmodified 5′ppp RNAs (IL-8): over 2 fold
IL-8 production, in words (IL-8): strong induction
